The text below walks through data of PMC5458082, “Fibril polymorphism affects immobilized non-amyloid flanking domains of huntingtin exon1 rather than its polyglutamine core” (Nature Communications, 2017).

To fix the notation:
B1: mutant huntingtin exon1 with a 44-residue polyQ domain, released from the MBP fusion protein by Factor Xa (domain or fragment)
chain: MATLEKLMKAFESLKSFQQQQQQQQQQQQQQQQQQQQQQQQQQQQQQQQQQQQQQQQQQQQPPPPPPPPPPPQLPQPPPQAQPLLPQPQPPPPPPPPPPGPAVAEEPLHRPSGS
notes: huntingtin exon1; The polyQ domain is expanded to 44 Gln against the UniProt entry. numbers count on: this Q44 construct from Met1; linker before the C-terminal His6, translated from the printed DNA; Uniformly 13C,15N-labelled for the ssNMR samples; Forms narrow (~6 nm) fibrils at 37 °C and wide (~15 nm) fibrils at 22 °C; both are the same chain; also called htt exon1; mutant htt exon1; source: …

Data set [1] concerns the molecule itself. The experiment in a line: fibril formation, seen by negative-stain TEM + FTIR + MAS solid-state NMR; htt exon1 released from the MBP fusion by Factor Xa at 22 or 37 °C in PBS pH 7.4 with 0.02% sodium azide; mature fibrils pelleted and washed.
Data set [2] deals with B1. Description: seeded and unseeded aggregation kinetics (ThT fluorescence + HPLC-based sedimentation assay); disaggregated htt^NTQ23P10K2 peptide in PBS pH 7.0 at 37 °C, with or without 20 mol-% sonicated htt exon1 fibril seeds formed at 22 or 37 °C. The conditions noted are these: both partners purified.

As for B1, the binding result in data set [1] was “binds”.

B2: htt^NTQ23P10K2 peptide (peptide)
peptide: MATLEKLMKAFESLKSFQQQQQQQQQQQQQQQQQQQQQQQPPPPPPPPPPKK
notes: written out from the printed formula Q23P10K2: 23 Gln, 10 Pro, 2 Lys; also called shorter peptides with a 23-residue polyQ domain
As to B2, the binding result in data set [2] was “binds”.
